# Measurements from the supplement of paper PMC9112550, “Optimization of the antimicrobial peptide Bac7 by deep mutational scanning” (BMC Biology, 2022).
# Tested on: Escherichia coli TOP10
# Experiment: shrunken log2 fold change of peptide-encoding DNA abundance (4.5 h post-induction vs induction); higher = less antimicrobial activity (less host growth inhibition)
# Details: time post-induction: 4.5 h; library: site-saturation at positions 5, 18, 19, 20
# 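Also: peptides expressed intracellularly from a pBAD plasmid library in pooled LB shake-flask culture, induced with 0.3% L-arabinose, DNA abundance read by NGS, three biological replicates, DESeq2 with apeglm shrinkage.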
row,Sequence,shrunken log2 fold change
1,RRIRYRPPRLPRPRPRPNMLPRP,-1.22
2,RRIRVRPPRLPRPRPRPARYPRP,0.0291
3,RRIRVRPPRLPRPRPRPLMTPRP,-0.24
4,RRIRRRPPRLPRPRPRPSGAPRP,0.536
5,RRIRWRPPRLPRPRPRPNDGPRP,-0.00211
6,RRIRKRPPRLPRPRPRPVFSPRP,0.111
7,RRIRLRPPRLPRPRPRPSEAPRP,0.12
8,RRIRTRPPRLPRPRPRPISCPRP,0.0135
9,RRIRWRPPRLPRPRPRPDEFPRP,0.196
10,RRIRARPPRLPRPRPRPDIEPRP,-0.0212
11,RRIRSRPPRLPRPRPRPTHNPRP,-0.133
12,RRIRRRPPRLPRPRPRPGMNPRP,0.00468
13,RRIRARPPRLPRPRPRPNPCPRP,0.0698
14,RRIRARPPRLPRPRPRPEVEPRP,1.3
15,RRIRARPPRLPRPRPRPATFPRP,0.129
16,RRIRHRPPRLPRPRPRPETDPRP,-0.253
17,RRIRRRPPRLPRPRPRPSWCPRP,-0.154
18,RRIRNRPPRLPRPRPRPHITPRP,-0.399
19,RRIRKRPPRLPRPRPRPEYDPRP,1.13
20,RRIRHRPPRLPRPRPRPSIFPRP,-0.704
21,RRIRWRPPRLPRPRPRPCIFPRP,-0.683
22,RRIRTRPPRLPRPRPRPDMHPRP,-0.249
23,RRIRQRPPRLPRPRPRPIAVPRP,-0.038
24,RRIRLRPPRLPRPRPRPINNPRP,-0.705
25,RRIRQRPPRLPRPRPRPVHDPRP,0.0147

row,Sequence,shrunken log2 fold change
1,RRIRYRPPRLPRPRPRPAQCPRP,-0.0254
2,RRIRFRPPRLPRPRPRPAHRPRP,0.418
3,RRIRPRPPRLPRPRPRPVLSPRP,0.076
4,RRIRFRPPRLPRPRPRPLIYPRP,-0.898
5,RRIRTRPPRLPRPRPRPDVSPRP,-0.223
6,RRIRPRPPRLPRPRPRPNYGPRP,0.111
7,RRIRWRPPRLPRPRPRPRHRPRP,0.138
8,RRIRNRPPRLPRPRPRPLGAPRP,0.413
9,RRIRFRPPRLPRPRPRPHCGPRP,-0.308
10,RRIRARPPRLPRPRPRPWWLPRP,-8.93e-05
11,RRIRHRPPRLPRPRPRPVTMPRP,-0.513
12,RRIRDRPPRLPRPRPRPPVYPRP,-0.175
13,RRIRSRPPRLPRPRPRPNTYPRP,-0.232
14,RRIRIRPPRLPRPRPRPLDLPRP,-0.415
15,RRIRYRPPRLPRPRPRPSEGPRP,0.0169
16,RRIRQRPPRLPRPRPRPGMNPRP,0.0205
17,RRIRRRPPRLPRPRPRPRCYPRP,0.00798
18,RRIRARPPRLPRPRPRPFAWPRP,0.122
19,RRIRARPPRLPRPRPRPVWNPRP,0.0865
20,RRIRYRPPRLPRPRPRPSFSPRP,-0.626
21,RRIRYRPPRLPRPRPRPWNPPRP,-0.00498
22,RRIRFRPPRLPRPRPRPEQLPRP,0.178
23,RRIRLRPPRLPRPRPRPQRQPRP,0.316
24,RRIRDRPPRLPRPRPRPDMTPRP,0.242
25,RRIRNRPPRLPRPRPRPMHNPRP,-0.286

row,Sequence,shrunken log2 fold change
1,RRIRTRPPRLPRPRPRPSIEPRP,-0.155
2,RRIRKRPPRLPRPRPRPCRLPRP,-0.298
3,RRIRTRPPRLPRPRPRPREAPRP,0.388
4,RRIRARPPRLPRPRPRPSIKPRP,-0.133
5,RRIRHRPPRLPRPRPRPCISPRP,-0.13
6,RRIRVRPPRLPRPRPRPMDYPRP,-0.0122
7,RRIRKRPPRLPRPRPRPCRMPRP,-0.00386
8,RRIRSRPPRLPRPRPRPMHRPRP,0.0682
9,RRIRDRPPRLPRPRPRPIKAPRP,-0.149
10,RRIRCRPPRLPRPRPRPSHGPRP,-0.33
11,RRIRDRPPRLPRPRPRPSWAPRP,-0.102
12,RRIRDRPPRLPRPRPRPFHRPRP,-0.261
13,RRIRRRPPRLPRPRPRPAGYPRP,-0.269
14,RRIRERPPRLPRPRPRPRNIPRP,-0.095
15,RRIRRRPPRLPRPRPRPGDDPRP,0.362
16,RRIRKRPPRLPRPRPRPLTEPRP,0.397
17,RRIRDRPPRLPRPRPRPMRPPRP,0.804
18,RRIRPRPPRLPRPRPRPIRSPRP,0.00396
19,RRIRCRPPRLPRPRPRPIYFPRP,-0.131
20,RRIRLRPPRLPRPRPRPAAEPRP,0.432
21,RRIRIRPPRLPRPRPRPHTLPRP,-0.436
22,RRIRMRPPRLPRPRPRPYDGPRP,-0.0589
23,RRIRDRPPRLPRPRPRPFVDPRP,0.063
24,RRIRGRPPRLPRPRPRPNSWPRP,0.356
25,RRIRKRPPRLPRPRPRPWWYPRP,-0.127

row,Sequence,shrunken log2 fold change
1,RRIRDRPPRLPRPRPRPEANPRP,1.28
2,RRIRYRPPRLPRPRPRPNGMPRP,-0.0465
3,RRIRLRPPRLPRPRPRPYCVPRP,-0.622
4,RRIRPRPPRLPRPRPRPVAWPRP,0.225
5,RRIRWRPPRLPRPRPRPLCWPRP,0.513
6,RRIRIRPPRLPRPRPRPQTMPRP,-0.0804
7,RRIRRRPPRLPRPRPRPITKPRP,0.165
8,RRIRTRPPRLPRPRPRPWLWPRP,0.202
9,RRIRTRPPRLPRPRPRPMNPPRP,-0.141
10,RRIRYRPPRLPRPRPRPIYSPRP,-0.143
11,RRIRRRPPRLPRPRPRPMSYPRP,-0.0379
12,RRIRERPPRLPRPRPRPKHEPRP,-0.205
13,RRIRTRPPRLPRPRPRPRHYPRP,-0.162
14,RRIRERPPRLPRPRPRPAQQPRP,-0.0516
15,RRIRMRPPRLPRPRPRPEYLPRP,-0.082
16,RRIRERPPRLPRPRPRPFRKPRP,-0.534
17,RRIRRRPPRLPRPRPRPVVDPRP,0.372
18,RRIRSRPPRLPRPRPRPREVPRP,-0.0353
19,RRIRYRPPRLPRPRPRPMWHPRP,-0.156
20,RRIRSRPPRLPRPRPRPFMTPRP,-0.328
21,RRIRHRPPRLPRPRPRPVTSPRP,-0.000369
22,RRIRLRPPRLPRPRPRPLTVPRP,0.127
23,RRIRERPPRLPRPRPRPSWSPRP,-0.0285
24,RRIRHRPPRLPRPRPRPNMDPRP,-0.173
25,RRIRQRPPRLPRPRPRPVHYPRP,-0.0228

row,Sequence,shrunken log2 fold change
1,RRIRCRPPRLPRPRPRPAWFPRP,0.194
2,RRIRLRPPRLPRPRPRPRSMPRP,-0.326
3,RRIRMRPPRLPRPRPRPNCNPRP,0.675
4,RRIRDRPPRLPRPRPRPDYLPRP,0.0544
5,RRIRRRPPRLPRPRPRPSCLPRP,-0.172
6,RRIRGRPPRLPRPRPRPTVPPRP,0.433
7,RRIRERPPRLPRPRPRPRPMPRP,-0.0942
8,RRIRKRPPRLPRPRPRPVPQPRP,0.313
9,RRIRYRPPRLPRPRPRPMKTPRP,-0.0156
10,RRIRQRPPRLPRPRPRPWGLPRP,0.211
11,RRIRDRPPRLPRPRPRPPRWPRP,0.331
12,RRIRFRPPRLPRPRPRPCFRPRP,-0.45
13,RRIRFRPPRLPRPRPRPSCCPRP,-0.443
14,RRIRDRPPRLPRPRPRPKHAPRP,0.222
15,RRIRERPPRLPRPRPRPIKLPRP,-0.481
16,RRIRERPPRLPRPRPRPEYPPRP,-0.162
17,RRIRNRPPRLPRPRPRPVFGPRP,0.106
18,RRIRARPPRLPRPRPRPVYEPRP,-0.426
19,RRIRQRPPRLPRPRPRPSRDPRP,-0.141
20,RRIRERPPRLPRPRPRPDQHPRP,-0.165
21,RRIRGRPPRLPRPRPRPEKAPRP,0.144
22,RRIRDRPPRLPRPRPRPSPNPRP,0.122
23,RRIRTRPPRLPRPRPRPDAEPRP,0.117
24,RRIRVRPPRLPRPRPRPYVKPRP,-0.354
25,RRIRFRPPRLPRPRPRPPCIPRP,-0.0411
